Assay results as given in the DeepSol protein solubility set.

Assay: soluble on expression in E. coli; label from the status in PepcDB or PDB records

MCVVIFLKFLFSDNGNNQHGTEAAFGRLAQSYRIQDLLFIIVIFFRAIHIMMFHRPPSARPPLNHVDQLKSLQATALGKPGMRSQATEPQPIGNTVSPLEFRIHDMNRRLYIFSSTGVSENDQQQWWDAFSHEFFDDDCKLWFVIGSEPVAFASRERYIINRQFIPKFFRSIFDSGMRELQYVLRGPSRECTLANGSQAYENENVLQITRYDQSSQFEVNTEGKLYVEFAPFDEVMNYRIKAWTLELKRSNEFVYNQNTADYRVEAQNPEQENKPRMGFFKSTFNLMTMLKILDPMQSIMSSAKSAPAITPREVMKRTLFQHHQVRQQNMRQQQLNQQMMIPAPEPEKPKPARKRQRKPAANPRGSKKATAAAAAAAAAATNGVPPTVPTASPANNQQFPPNPMTSQFQQMSYPDVMVVGEPSMMGSEFGENDERTISRVENSQYDPNAMQMQSLGQGPNSSMNINGRNMMNQHHPGMQPPPGQQHMPPHSMGSQMPTSMHNPMHMPPGSMQGHGGMPPMPSTMANQMPPPNLPPHTMSNQMPNSRMPPMQGQMPPSGMPGQMSNPNMMGSGMPPMSMSSQMPGSMSNPMPNQMPGGMQMNQMPPPNYSQYTGGPPPQWPPPNSAMITG
soluble on expression in E. coli: not soluble

MNITDLKPTKVWKFFHEITQVPRPSKKEEKILAYLVKFAEDRNLKYRTDEVGNLVIEKPATPGYEHLETVILQSHMDMVCEKNADKVHDFENDPIRTIIDGEWLHADGTTLGADNGIGCAAELAILDSDDIEHGPIECLFTMDEETGMTGAMNLKPGFFNGKILLNLDSEDEGELFIGCAGGMGTMVEFAYEKREATDDYLYFEVKVSGLKGGHSGGEIHIGLGNANKILTRYLYALEHELDWKLCSFQGGNLHNAIPREAHAVIGLKADQKERARVILNELAAAVEDELKRVDPGVKLEMKSVGKPAYRIDCDTKRRLVRALYACPHGVYGMSHDIEGLVETSSNLASVKMKEDDKIYVETSQRSSTSSLISDIANTVASVFELADAKISFRDPYPGWKPNPDSPILKAASESYERIFGRKPAIKAIHAGLECGLFLDKYPYLDMVSFGPTLRDVHSPVEKIEIKTVQLWWDHLVDILKHIPAAK
soluble on expression in E. coli: not soluble

MTNPWEVSDAEYQKNFAMFGQLTGGQPFMDAVTARNALMRSNLPTQVLSQIWALSDLDKDGRLDIREYSIAMRLALNCLAGIPIPPQLPPSLLVVPARNAPPTWPGSRHGSVDYSQTLPPAIDRRMSQSYIPSAPVSIAGTPSSRHNSISAGSPLNNDRNVFEGRQLENWAIPHHNKLKYSQLFNALDKERLGSLSSQVGRSALGLSGLPTNVLAHIWFLSDVNKDGKLSVDEYAISQYMIEMFKSGFALPKITPLELVRMCGISSRSANNTPELEPGAEPPQKSPAPKTFEDKRQDNLSKGQAELERRRRVLEEEEQRRRAEVEKKEREEEAKKNRERQEKERQAEVERQAELERQRIIEAQREEEEKKRRLEMERRREEDEKMRKVQMEKAKVKQMQVQMPEQKKWNFYNQKQQENERLAQRQQREKTLQFQLQALDEKVIDVEVDIGKAKEAVAEVTGFIERMRSTRDEKVARIKELQETNQKTAIESQELGHQLLQKQSAHKETTQRKSELEALRRKRDAIRKAIEDAALELSTEKEKSYNQTEILKTNKEKYKTDVYSKLVAKREEYRNSFELLVHAQTHARSKIGEFEAKSAPASAAPAPAPAPAPTTTNGFPANFNDAFGEFDKTDASQRFDADFGATSTADPFAQIAQAPAHSKGAVDQSAFNIHDTYKCRALFAFEARSEDELSFEPGDVIIVFQSHAAEPGWRAGQLREKVGWFPEAFVEAIAAVPTPGGDPPIQNMPPNMTPSSSVDQIGVKAARKAEIAAAMGLTEGGAPPASSAPAAAAVISQCIAQFQWRARNEEDLSFAKGDTIEVLEKQEMKWKGRNPAGEIGWFPKSYVKEVGATTSTTTPIVSPSKASAGAPGAAAGAQYDVVPSDVTLQASETAPQQQLYTVIYDFEAVETTDLALHVGDTILVLEKNDEWWKGRCNGREGIFPANYVEISVQQAGDPTPPTQAPTPAAPPTVLCEAKVVVDFVASAPNQLGIKVGEIVKIREKSAAGWWEGELIRNGKPIAGWFPGEYVKVLEEAASPATRATAVYDYEASQPDELGFKTGDVIIVTDKSEAEWWSGHREQDPSKSGLFPSNYVQQQ
soluble on expression in E. coli: not soluble

SSLCERAASGSALLWPRVLLFGDSITQFSFQQGGWGSLLADRLVRKCDVLNRGFSGYNTRWAKIILPRLIRKGPGMENPVAVTIFFGANDSSLKDENPKQHVPLDEYSANLRDMVQYLRSVDVPRERVILITPPPLCEAAWEKECVLKGCKLNRLNSVVGEYANACLQVARDCGTDVLDLWTLMQKDSQDFSSYLSDGLHLSPMGNEFLFLNLCPLLDKKVSSLPWLLPYWKDVEEAKPELSLLGDGDY
soluble on expression in E. coli: soluble

MGSDKIHHHHHHMMQNNPFPYSNTEKRYHTLNYHLREHFGHKVFKVALDGGFDCPNRDGTVAHGGCTFCSAAGSGDFAGNRTDDLITQFHDIKNRMHEKWKDGKYIAYFQAFTNTHAPVEVLREKFESVLALDDVVGISIATRPDCLPDDVVDYLAELNERTYLWVELGLQTVHERTALLINRAHDFNCYVEGVNKLRKHGIRVCSHIINGLPLEDRDMMMETAKAVADLDVQGIKIHLLHLLKGTPMVKQYEKGKLEFLSQDDYVQLVCDQLEIIPPEMIVHRITGDGPIELMIGPMWSVNKWEVLGAINKELENRGSYQGKFFQRLEEESAL
soluble on expression in E. coli: not soluble

MAILKAQHLAKSYKKRKVVSDVSLQVESGQIVGLLGPNGAGKTTSFYMIVGLVARDEGTITIDDNDISILPMHSRSRMGIGYLPQEASIFRKLSVEDNIMAVLQTREELTHEERQDKLEDLLEEFHIQHIRKSAGMALSGGERRRVEIARALAANPQFILLDEPFAGVDPISVIDIKKIIEHLRDRGLGVLITDHNVRETLDVCEKAYIVSQGRLIAEGTPQDVLNNEQVKQVYLGEQFRL
soluble on expression in E. coli: not soluble

ERTRAEQKLAETNVFLNSVVDGVAEPMVVVGLDRRVIMTNRAARDFFQISDVGSDEACHRLIHHRDTPCVREEGMQCPLLDVRTAKRPVIATQEHRDRSGDKRVVEVMTSPLLGSDGVAIGIIEAFRDIT
soluble on expression in E. coli: not soluble

MHHHHHHGSMGMMSRYEELRKELPAQPKVWLITGVAGFIGSNLLETLLKLDQKVVGLDNFATGHQRNLDEVRSLVSEKQWSNFKFIQGDIRNLDDCNNACAGVDYVLHQAALGSVPRSINDPITSNATNIDGFLNMLIAARDAKVQSFTYAASSSTYGDHPGLPKVEDTIGKPLSPYAVTKYVNELYADVFSRCYGFSTIGLRYFNVFGRRQDPNGAYAAVIPKWTSSMIQGDDVYINGDGETSRDFCYIENTVQANLLAATAGLDARNQVYNIAVGGRTSLNQLFFALRDGLAENGVSYHREPVYRDFREGDVRHSLADISKAAKLLGYAPKYDVSAGVALAMPWYIMFLK
soluble on expression in E. coli: soluble

MGSDKIHHHHHHMSQHVLLNSIEHKDVKVMTHRSAALGDNLWYSVTFPQEFRSVQAHYPIFFHKDTATGQFYAVALFGFQQNDNVFLSDQGWSASYVPLTVRRQPFLIGQQTVLEDGVERQQRVIHVDLDHPRVSETEGEALFLPYGGNTPLLDEVGEILEVIHHGLQDGQRFVDALIEHQLLESFTLDIELDNGQKNQMIGFYTINEETLAGLSADALAKLHQQGYLQAIYMTLASQSNVRDLLNLKNAQG
soluble on expression in E. coli: not soluble

MGSDKIHHHHHHMRINVEEAIEKLLANQLVAMPTETVYGLAARLTCPGAIKKIFEIKGRSLVNPLIIHVANPIDVCAYAIALPPHFDALTHAFWPGPLTLIVPIQLDLVDSIVRAGLPTAAFRMPSHPLTLHVIRAVGPLVMPSANLSGKPSSTDVKHVEMDFGLDFPVLDGGPCQEGVESTILHYRNSQWEIARLGALSATVFQPILGYEPIYQKIVKNDQIISPGQMFRHYAPQATLFLGDQKQITEADFIVGFTEKSYPVEKRVLYLGSLSNPHEVAENLYAVLRQLDFEKAKIAWVDMDFPSEGLWKTIAERLSRAGEK
soluble on expression in E. coli: not soluble

MADLIARLREDGIQKRVIQEGRGELPDFQDGTKATFHFRTLHSDNEGSVIDDSRTRGKPMELIVGKKFKLPVWETIVCTMREGEIAQFLCDIKHVVLYPLVAKSLRNIAEGKDPLEGQRHCCGIAQMHEHSSLGHADLDALQQNPQPLIFHIEMLKVESPGTYQQDPWAMTDEEKAKAVPVIHQEGNRLYREGQVKEAAAKYYDAIACLKNLQMKEQPGSPDWIQLDLQITPLLLNYCQCKLVAQEYYEVLDHCSSILNKYDDNVKAYFKRGKAHAAVWNAQEAQADFAKVLELDPALAPVVSRELRALETRIRQKDEEDKARFRGIFSH
soluble on expression in E. coli: soluble

METATHYDLFIIGGGINGCGLARDAAGRGFKVGLAEMNDLASGTSSASTKLIHGGLRYLEYYEFRLVREALKEREIIWRMAPHIVRPLRFLLPYHKKLRPAWMLRFGLFIYDYLGNWNQKLWRSKTVNFSKSFCSILKEEYHKGFEYSDARVDDARLVIANARDAEKWGAVIKVRTEVLSLKSEEKKWVVILRDKLSGKESCVTASYVANMTGPWINHILSNVLDCKENPPVRLVRGSHILVPKLYAHDRAYIFQNGDGRILFSIPYQEEFTLLGTTDCGYQGDPADVHITDTEIDYICTAASEYFVQPVLRESIVWTYSGVRPLYDDGASKAQEITRDYVLKEMGTESTPRILNLYGGKITTYRKLAEDAMKFVEKALGKKGKPWTINSTLPGGDFPHNKLDTIENKIALLVPDLDAFTYRRLARSYGCEALMIFANGKADKGKNFGHGLYEVEVKWLMEKEWAKTCEDVLWRRSKLGLLFNKKEINALTAYMQKIQDNEQNS
soluble on expression in E. coli: not soluble

MSSTKIDTTKPLSILLLGVDTGADGRIDKGNSDTIMVVTINPQTKKTLITSIPRDSLAEMVGDQDTNVQKLNAAYNIGGSKMAKASVSKLFNVPIDYYATINMGGLKQIVDAVGGVTITSPLNVSFDHITVTKGKHHLNGKQALSYTRMRYQDPRGDYGRQLRQQQVMRAVLAKLAETKTYSRYNQLLTSLKGNLQTDLSFNDLVGLATHDRANMKHIQSTQVIGSPAWINTSSYQILSTKTLQQTSDRLRTQLGLSTETLTNMETKLNAKNTVYDGKTNLNYDTQGLDKITYSDNTKLEHHHHHH
soluble on expression in E. coli: soluble

MIVFSSLQIRRGVRVLLDNATATINPGQKVGLVGKNGCGKSTLLALLKNEISADGGSYTFPGSWQLAWVNQETPALPQAALEYVIDGDREYRQLEAQLHDANERNDGHAIATIHGKLDAIDAWSIRSRAASLLHGLGFSNEQLERPVSDFSGGWRMRLNLAQALICRSDLLLLDEPTNHLDLDAVIWLEKWLKSYQGTLILISHDRDFLDPIVDKIIHIEQQSMFEYTGNYSSFEVQRATRLAQQQAMYESQQERVAHLQSYIDRFRAKATKAKQAQSRIKMLERMELIAPAHVDNPFRFSFRAPESLPNPLLKMEKVSAGYGDRIILDSIKLNLVPGSRIGLLGRNGAGKSTLIKLLAGELAPVSGEIGLAKGIKLGYFAQHQLEYLRADESPIQHLARLAPQELEQKLRDYLGGFGFQGDKVTEETRRFSGGEKARLVLALIVWQRPNLLLLDEPTNHLDLDMRQALTEALIEFEGALVVVSHDRHLLRSTTDDLYLVHDRKVEPFDGDLEDYQQWLSDVQKQENQTDEAPKENANSAQARKDQKRREAELRAQTQPLRKEIARLEKEMEKLNAQLAQAEEKLGDSELYDQSRKAELTACLQQQASAKSGLEECEMAWLEAQEQLEQMLLEGQSN
soluble on expression in E. coli: soluble

MFEDLLQTKRLIKSYYYYPKLVLVINIAEYLYSKGRDVCIFNFDKIKWEYYPYNLNFHMKCNERSENIIFEAEDESEIPNNFSLVTSIKKLNLGIPQSEIQKLDQNLFKINIDNKIYLFRIIEGKIVEEKIKGLSEEIINILREYNELSLKEIVDILYHKTNSSRDNIRKEIYFLKDIGVIEIKNGKVLLNNNSWLKR
soluble on expression in E. coli: soluble
